The data set is described as follows: soluble on expression in E. coli; label from the status in PepcDB or PDB records.
For the sequence “GPGSMKTIRKRMRLSVSGRSSARSGMSSDTRLPAAVLERETKVINYSHSTSRAMAAQLENCVRLIRGYQASLQYCNEEIEGALLSLGVATTHSLISSITSVMEGLDTLSGVCRAMHEGYNEEVRHREDLHTSLTGAYISLKELHEATENELREVVAERDRKVAAFGKAVAYVEAVVAERMLWQEANGYNCAGLPVVEMSFSESCHEALRKFDDTVSEAQGEGHSNAESLLASTDVPQTLAKRWDNVENLRHTNGLPSARVLYVPPKDEVELLRNVLEMGTGDRALMWDVQQRERALQDSLTNIHVFGHSCLKALHSMREELAEFRQWFLTIDRKCEPIVVAMRKLGNGVCGLSSASDKNLPH”, the “soluble on expression in E. coli” value was “not soluble”.

Turning to “MKDSLQTIGVFVRPTHYQNPLFEKLEQAKEWVLKLLEDEGFESFMIDSLDGAKDARLIEKADAFLCLGGDGTILGALRMTHSYNKPCFGVRIGNLGFLSAVELNGLKDFLQDFKQDRIKLEEHLALEGRIGKTSFYAINEIVIAKKKALGVLDIKAYAGHTPFNTYKGDGLIIATPLGSTAYNLSAHGPIVHALSQSYILTPLCDFSLTQRPLVLGAEFCLNFCAHEDALVVIDGQATYDLKANQPLYIQKSPTTTKLLQKNSRDYFKVLKEKLLWGESPSKKRLEHHHHHH”, the “soluble on expression in E. coli” value is “soluble”.

“MSNIERRHTIMAKGSVRKKGKKWYYRFYVEDASGNLVQKECVGTESKSETEKLLRQAMDDYEKKKFVAKAENLTVGQLLDVWAEEELKTSTLSNGTVENYLGTIRNIKKHPLAERKLKNVTSEHLQSFFDLLSFGGVHPDGKEKKGYSKDYIHSFSAVMQQSFRFAVFPKQYITFNPMQYIKLRYQTDEVDLFSDEDMDGNIQPISREDYERLLAYLQKKNPAAILPIQIAYYAGLRIGEACGLAWQDVNLEEQCLTIRRSIRYDGSKRKYIIGPTKRKKVRVVDFGDTLVEIFRNARKEQLKNRMQYGELYHTNYYKEVKEKNRVYYEYYCLDRTEEVPADYKEISFVCLRPDGCLELPTTLGTVCRKVAKTLEGFEGFHFHQLRHTYTSNLLANGAAPKDVQELLGHSDVSTTMNVYAHSTRDAKRKSVRLLDKVVGND”: the “soluble on expression in E. coli” value was “not soluble”.

On to “MTVDDIMVPRSEIIGIDINDDWKSILRQLSHSPHGRIVLYRDSLDDAISMLRVREAWRLMSEKKEFTKETMLRAADEIYFVPEGTPLSTQLVKFQRNKKKVGLVVNEYGDIQGLVTVEDILEEIVGDFTTSMSPTLAEEVTPQNDGSVIIDGTANVREINKAFNWHLPEDDARTVNGVILEALEEIPVAGTRVRIGEYDIDILDVQDNMIKQVKVFPVKPLRESVAELEHHHHHH”, for which the “soluble on expression in E. coli” value is given as “soluble”.

In the case of “MGSDKIHHHHHHMTSFISVYLKIKYYICIYKGNLLVKSILLESSCVILIKYSAQYPNLSNSMIKMNKTISDVDFDDEQEIKLPLSNRQSIAILLGAGFSAPKGYPIGNDINKKIQNFDDSNIDFSPSGMLAISKDGHKPLFQIEGVRNIHQKYFIFCKRLINEYTKAHSNQFDYEQFYDFIKSDEAKDNRYRLLCQDLINKSDDYDNYLFNVVHIYNQMVLYLLKDKEGKSYYDGEPFKVNCADAYNEFLLYLSQQSKECIINIHTLNHDLLIESFNQTSNINGNISDGFDEYGSEYYGILEHDHRNYNCRLERYTGRYNTPIRLYKLHGSIDYVPFYRRDKNGFMKPEKYVKIKWGIGASNIIKGRKSKYGYDASPFEYHADFLTGTTSKIKRYDETLLFKKLFKKFRNNLSKANSLIIIGYGCKDKGINEMIKDNFDYKNKPSFIIDKYAGASVETFAQKINAKIIKESIERLDKTWFV”, the “soluble on expression in E. coli” value is “not soluble”.

Take “MSLNTQQGLDEIERIAADETVVANVESEAEVKMAETIPVETPPAVVPSVDDSSLYIHRELSQLQFNIRVLEQALDESYPLLERLKFLLIFSSNLDEFFEIRIAGLKKQITFAREQAGADGLLPHQALARISELVHEQVSRQYRILNETLLPELAKHQIRFIRRRHWTLKIKTWVRRFFRDEIAPIITPIGLDPTHPFPLLVNKSLNFIVELEGMDAFGRDSGLAIIPAPRLLPRIIRLPEDVGGEGDNYVFLSSMIHAHADDLFPGMKVKGCYQFRLTRNADLSVDTEDVEDLARALRGELFSRRYGDAVRLEVVDTCPQNLTNYLLKQFGLSESELYKVSGPVNLTRLFSVTGLESHPELQYPPFTPAIPRLLQKKENLFNVLSKLDVLLMHPFESFTPVIDLLRQAAKDPNVLAIKQTLYRSGANSEIVDALVEAARNGKEVTAVIELRARFDEESNLQLASRLQQAGAVVIYGVVGFKTHAKMMLILRREDGELRRYAHLGTGNYHAGNARLYTDYSLLTADVALCEDLHKLFNQLIGMGKTLRMKKLLHAPFTLKKNLLEMINREAAQAALGQPAHIMAKVNSLTDPKVIRALYKASQAGVRIDLVVRGMCCLRPGIPGVSHNIHVRSIIGRFLEHSRIYYFLNGGDEKLYLSSADWMERNLDMRVETCFPVEGKKLVQRVKKELETYLTDNTQAWVLQADGSYQRLSPTGNQNPRNTQATLLEKLAAPVLTAREGHHHHHH”: the “soluble on expression in E. coli” value is on record as “soluble”.

As to “MSNLYTELKNEWSKHAPNLTHCSRLLDGFKLELVRSNFGTIQTASSSKQKDQLIKSREMLEIAVEHSITIKDYAAFERYMAQLNTYYYDYDKYLESSKHMYKFMGLNLLYMLATNRLADFHIELERLPTALLLHDSFIQPVLALENYYMEGRYNKILQAKKSMPSEIYSNFMDILVNTAREEIASCMEKSYLKMAPKLAAQRLGLRPGSKELFELATKRQWCLDEEGNYDYAGLHTRPMEKVPAKDIATHNLTYAQELEKIVLEHHHHHH”, the “soluble on expression in E. coli” value is “not soluble”.

Regarding “MTNPGDGAAGAVDCATLDHWRPRLAAIAAAAGQDDAAHDLGHLRRVWGAARAMLQAHPEADALVVLAASYLHDLVNLPKNHPERHLASRQAAAAARERLARAGFPAARLDAVAHAIEAHSFSAGIAPRTIEARIVQDADRLDALGPVGLARMFHVGGSLGRALAHPSDPLAAQRALDDSRYTLDHIEAKLARLPHGMQTEAGRRLGEQRLAWLRDFRAAFAAQWGGGQLRLEHHHHHH”, the “soluble on expression in E. coli” value is listed as “soluble”.

For “MRKTWLSLLLLFILALSACGNAADDQKNNSASPKEKKPETITYQSENGPVEVPADPKRVVVLSTFAGHVLALDVPIVGVDSWSKMSPLFQEKLKDAEVVTDEDIEKIMALKPDLIIGLSNTKKVDKLSKIAPTVTFTYGKVDYLTQFLEIGKLLNKEKEAKAWIDDFKQRAQQAGEEIRAKIGENATVTVAENFDKQLYVFGNNWARGTEILYQEMKLKMPKAVEEQALKPGYYAVSLEALPQFVGDYLILSKNGDGDTSFMETNTFKNIPAVKNGHMFVADAKAFYFNDPITLDYQLDFFKKHFLGQ”, the “soluble on expression in E. coli” value is reported as “not soluble”.

Regarding “AESTLGAAAAQSGRYFGTAIASGKLGDSAYTTIASREFNMVTAENEMKIDATEPQRGQFNFSAGDRVYNWAVQNGKQVRGHTLAWHSQQPGWMQSLSGSTLRQAMIDHINGVMGHYKGKIAQWDVVSHAFSDDGSGGRRDSNLQRTGNDWIEVAFRTARAADPAAKLCYNDYNIENWTWAKTQGVYNMVRDFKQRGVPIDCVGFQSHFNSGSPYNSNFRTTLQNFAALGVDVAITELDIQGASSSTYAAVTNDCLAVSRCLGITVWGVRDTDSWRSGDTPLLFNGDGSKKAAYTAVLNALNGGSSTPPPSGGGQIKGVGSGRCLDVPNASTTDGTQVQLYDCHSATNQQWTYTDAGELRVYGDKCLDAAGTGNGTKVQIYSCWGGDNQKWRLNSDGSIVGVQSGLCLDAVGGGTANGTLIQLYSCSNGSNQRWTRT”, the “soluble on expression in E. coli” value is “soluble”.

Take “DDRGDFALVAGDALPQFSVEMSDGGVLNTQSFSGKVGVIVFFHTDCPDCQKELPVIQKVYDTYKENPDVLLSCISRSESGSEVQAYWEKHSFSLPFSAQNDDAVFSLFASHTIPRILITDKEGIIRAVYTDDPLATYQELAKDIDAVL”: the “soluble on expression in E. coli” value is “soluble”.

As for “MGSDKIHHHHHHAQTGASDGSRFGHGEDSIRCLKNISIYTEYVKTNNFKDAYTPWMSVFTEAPKAQVSTYTNGAKILRALIAGEKDAAKQKQYFNELMKVHDQRIQYLDDLNKLVKRDATKGSIIGMKAHDYFTMGGQDMNEAYNMFKEAIELEKENSDYFVLQEFMDAAARKMKSDEAYKEQFIQDYLFASGVADGALKAATKENDKKLLKVAKDNIDAFFINSGVATCDNLQAIYAPKVEQNKTNLDYLKQVISVMQMLNCTEQEAYFAASEAAHAIEPTAETAVGCGYMYYKKGDMDKCIDYFDQAINLEQDPLKKADYAYKTAAILFSKKQLSKAKQYALKSISLDGNNGKPYILIANMYASSPNWSDEAALNKCTYFAVIDKLQKAKSVDPSVAEEANKLIGTYAAHTPKDADLFFLSLKKGDSVTIGGWIGETTTIR”, the “soluble on expression in E. coli” value is recorded as “not soluble”.

As to “VMNRMATALGGDYFDFISMPDGREVVFIGDVTGHDIQSSVVMSLVYGFLHHCALTVDDPLTMVSQLNRFLVRFADHGTELDHHFSSTLFLGIIDPASLRLEYVNAGHVPPLVLRRNSLHRLASTSPPVGFFAEAEVATGCFGLERGDRLLLYTDGILDASNGTETFGAERLDAFLTATGGSYTRFMDELAAALRDFGAGDPPDDDCSAIVIDI”, the “soluble on expression in E. coli” value is listed as “not soluble”.

Regarding “MITLYGFGKCFNVMDASPFVVKVDLFMRMANIPCQVKYGAKYLKKSPKGKLPFINDNGTVVADSDAIITYLTKQYQVTLDAELTPEQKAQAHLITKSLDEGLYWCLVYSRWATDECWPLTNEAFFATLPIPLRWFLPNIIRKSVKKNLHGQGVGRHSLEEILAISDKSLASLSTLLADKNFFFGDTHTSFDAVVYSHLCEFISVRFDNGFESKFTKNAKRYQNLVQFCQRIEDKFYPEKLEHHHHHH”, the “soluble on expression in E. coli” value is recorded as “soluble”.

Turning to “MSLSIRSLFGGLREKILGKNMKIVFPEGNDERVVRAAARLKFEGLLEPIILGQSEEVRNLLTKLGFADQDYTIINPNEYADFDKMKEAFVEVRKGKATLEDADKMLRDVNYFGVMLVKMGLADGMVSGAIHSTADTVRPALQIIKTKPGISRTSGVFLMNRENTSERYVFADCAINIDPTAQELAEIAVNTAETAKIFDIDPKIAMLSFSTKGSGKAPQVDKVREATEIATGLNPDLALDGELQFDAAFVPETAAIKAPDSAVAGQANTFVFPDLQSGNIGYKIAQRLGMFDAIGPILQGLNKPVNDLSRGSSAEDIYKLAIITAAQAIESQGEGHHHHHH”, the “soluble on expression in E. coli” value was “soluble”.

On to “MGSDKIHHHHHHMLNRVHLNGLRAVETVARLGSLAAAAGELNVSVSAVSQQISRTEKQLGQALFERTASGLVLTEFGAAFATRLGAGFRELAQAVALADEASQCTLVVSVAPAFASKWLLPRLSRHFDRHPNVLLRIDASVRLANLDHSDVDIAIRLGDGEWPGVRAELLLAQEVFPVCAPSIAAKLRSIEDLAQTCAITDERSMISWDSWFKAAGVEPVTFLKGARFTDPMLCLESAIAGHGVMLAWQLLTADALTDGRLVAPFGVRAESGLGYWMVTSATKAESRKVHDFKAWIREEIETTMAQFRTLDSAA”, for which the “soluble on expression in E. coli” value was “not soluble”.

For the sequence “MSSLARGISRRRTEVATQVEAAPTGLRPNAVVGVRLAALADQVGAALAEGPAQRAVTEDRTVTGVTLRAQDVSPGDLFAALTGSTTHGARHVGDAIARGAVAVLTDPAGVAEIAGRAAVPVLVHPAPRGVLGGLAATVYGHPSERLTVIGITGTSGKTTTTYLVEAGLRAAGRVAGLIGTIGIRVGGADLPSALTTPEAPTLQAMLAAMVERGVDTVVMEVSSHALALGRVDGTRFAVGAFTNLSRDHLDFHPSMADYFEAKASLFDPDSALRARTAVVCIDDDAGRAMAARAADAITVSAADRPAHWRATDVAPTDAGGQQFTAIDPAGVGHHIGIRLPGRYNVANCLVALAILDTVGVSPEQAVPGLREIRVPGRLEQIDRGQGFLALVDYAHKPEALRSVLTTLAHPDRRLAVVFGAGGDRDPGKRAPMGRIAAQLADLVVVTDDNPRDEDPTAIRREILAGAAEVGGDAQVVEIADRRDAIRHAVAWARPGDVVLIAGKGHETGQRGGGRVRPFDDRVELAAALEALERRA”, the “soluble on expression in E. coli” value is listed as “soluble”.

The values above are taken from the DeepSol protein solubility set.
